Test results from patent publication US20250066456A1 (NOVAVAX, published 2025).

Key:
[1] = molecular target: T1, BV2561 (recombinant CoV S glycoprotein, BA.2.75) (SARS-CoV-2, UniProt P0DTC2 14-1273); experiment: BLI, antibody on anti-mouse Fc biosensor, rS analyte
[2] = molecular target: T2, BV2562 (recombinant CoV S glycoprotein, BA.4.6) (SARS-CoV-2, UniProt P0DTC2 14-1273); experiment: as above
[3] = molecular target: T3, BV2541 (recombinant CoV S glycoprotein, BA.4) (SARS-CoV-2, UniProt P0DTC2 14-1273); experiment: as above
[4] = molecular target: T4, BV2509 (recombinant CoV S glycoprotein, BA.1) (SARS-CoV-2, UniProt P0DTC2 14-1273); experiment: as above
[5] = molecular target: BV2443 (recombinant CoV S glycoprotein, Gamma) (SARS-CoV-2, UniProt P0DTC2 14-1273); experiment: as above
[6] = molecular target: T5, BV2542 (recombinant CoV S glycoprotein, BA.2.12.1) (SARS-CoV-2, UniProt P0DTC2 14-1273); experiment: as above
[7] = molecular target: T6, BV2540 (recombinant CoV S glycoprotein, BA.5) (SARS-CoV-2, UniProt P0DTC2 14-1273); experiment: as above
[8] = molecular target: BV2373 (recombinant CoV S glycoprotein, Prototype) (SARS-CoV-2, UniProt P0DTC2 14-1273); experiment: as above
[9] = molecular target: T7, BV2523 (recombinant CoV S glycoprotein, BA.2) (SARS-CoV-2, UniProt P0DTC2 14-1273); experiment: as above
[10] = molecular target: BV2425 (recombinant CoV S glycoprotein, Alpha) (SARS-CoV-2, UniProt P0DTC2 14-1273); experiment: as above
[11] = molecular target: BV2465 (recombinant CoV S glycoprotein, Delta) (SARS-CoV-2, UniProt P0DTC2 14-1273); experiment: as above
[12] = molecular target: BV2438 (recombinant CoV S glycoprotein, Beta) (SARS-CoV-2, UniProt P0DTC2 14-1273); experiment: as above
[13] = molecular target: T8, RBD of a CoV S glycoprotein related to a CoV S glycoprotein from the SARS-CoV-2 omicron strain (SARS-CoV-2 omicron strain); experiment: BLI, RBD-His on Ni-NTA biosensor, antibody analyte
T8 construct: domain: RBD

[14] = molecular target: T5, BV2542 (recombinant CoV S glycoprotein, …); experiment: ELISA on coated rS
[15] = molecular target: T6, BV2540 (recombinant CoV S glycoprotein, …); experiment: ELISA on coated rS
[16] = molecular target: T7, BV2523 (recombinant CoV S glycoprotein, …); experiment: ELISA on coated rS
[17] = molecular target: T1, BV2561 (recombinant CoV S glycoprotein, …); experiment: hACE2 receptor inhibition ELISA on coated rS; competitor hACE2-His
[18] = molecular target: T2, BV2562 (recombinant CoV S glycoprotein, …); experiment: as above
[19] = molecular target: T3, BV2541 (recombinant CoV S glycoprotein, …); experiment: as above
[20] = molecular target: BV2589 (recombinant CoV S glycoprotein, BQ.1.1) (SARS-CoV-2, UniProt P0DTC2 14-1273); experiment: as above
[21] = molecular target: T4, BV2509 (recombinant CoV S glycoprotein, …); experiment: as above
[22] = molecular target: T5, BV2542 (recombinant CoV S glycoprotein, …); experiment: as above
[23] = molecular target: T6, BV2540 (recombinant CoV S glycoprotein, …); experiment: as above
[24] = molecular target: T7, BV2523 (recombinant CoV S glycoprotein, …); experiment: as above

B1: 35.13 (antibody, V domains shown)
VH: QVQLQQSGAELGKPGASVKLSCRASGYTFTRYYIYWVKQRPGQGLEWIGEINPSNGDTHFNEKFKTKATLTVDKSSSSAHIHLTSLTSEDSAVYYCSIHAYSFDFWGQGTTLTVSS
VL: EIQMTQSPSSMSASLGDRITITCQATQDIVKNLNWYQQKPGKPPSFLIYHATELAKGVPSRFSGSGSGSDYSLTISNLESEDFADYYCLQFYDFPFTFGAGTKLELKR
Kd [1]: 6.87 pM | Kd [2]: < 1 pM | koff [2]: < 1e-07 s⁻¹ | kon [2]: 38500 M⁻¹ s⁻¹ | Kd [3]: < 1 pM | koff [3]: < 1e-07 s⁻¹ | kon [3]: 22700 M⁻¹ s⁻¹ | Kd [4]: 9.82 pM | koff [4]: 1.52e-07 s⁻¹ | kon [4]: 15500 M⁻¹ s⁻¹ | Kd [5]: 19.8 pM | koff [5]: 1.7e-07 s⁻¹ | kon [5]: 9090 M⁻¹ s⁻¹ | Kd [6]: 7.87 pM | koff [6]: 1.14e-07 s⁻¹ | kon [6]: 15000 M⁻¹ s⁻¹ | Kd [7]: 7.23 pM | koff [7]: 1.21e-07 s⁻¹ | kon [7]: 17600 M⁻¹ s⁻¹ | Kd [8]: 5.29 pM | koff [8]: 1.67e-07 s⁻¹ | kon [8]: 33000 M⁻¹ s⁻¹ | Kd [9]: 8.43 pM | koff [9]: 1.61e-07 s⁻¹ | kon [9]: 19100 M⁻¹ s⁻¹ | Kd [10]: 3.22 pM | Kd [11]: 3.73 pM | koff [11]: 1.42e-07 s⁻¹ | kon [11]: 41900 M⁻¹ s⁻¹ | Kd [12]: 15.2 pM | koff [12]: 1.54e-07 s⁻¹ | kon [12]: 10500 M⁻¹ s⁻¹ | Kd [13]: 1.93 pM | kon [13]: 142000 M⁻¹ s⁻¹ | EC50 [14]: 0.104 µg/mL | EC50 [15]: 1.03 µg/mL | EC50 [16]: 0.053 µg/mL | IC50 [17]: 0.169 µg/mL | IC50 [18]: > 5 µg/mL | IC50 [19]: > 5 µg/mL | IC50 [20]: > 3 µg/mL | IC50 [21]: 0.097 µg/mL | IC50 [22]: 0.177 µg/mL | IC50 [23]: > 3 µg/mL | IC50 [24]: 0.126 µg/mL

B2: 322.3 (antibody, V domains shown)
VH: RVQLQQSGPELVKPGASVTISCKASGYIFTSDYIHWVKQRPGQGPEWIGWIYPGNINTKYNEKFKGKATLTADKSSSTAYMQLSSLTSEDSAVYFCARDDGNLYYYAMDYWGQGTSVTVSS
VL: NIVLTQSPASLAVSLGQRATISCRASESVDSYGSSFMHWYQQKPGQPPKLLIYLASNLESGVPARFSGSGSRTDFTLTIDPVEADDAATYYCQQNNEDPRTFGGGTKLEIK
Kd [1]: 4.47 pM | Kd [2]: < 1 pM | Kd [3]: < 1 pM | Kd [4]: 87.4 pM | Kd [5]: 107 pM | koff [5]: 1.26e-07 s⁻¹ | kon [5]: 1180 M⁻¹ s⁻¹ | Kd [6]: 41.5 pM | koff [6]: 1.22e-07 s⁻¹ | kon [6]: 2690 M⁻¹ s⁻¹ | Kd [7]: 13.2 pM | koff [7]: 1.46e-07 s⁻¹ | kon [7]: 11100 M⁻¹ s⁻¹ | Kd [8]: 57.1 pM | Kd [9]: 40.5 pM | Kd [10]: 78.7 pM | Kd [11]: 78.7 pM | Kd [12]: 6.48 pM | koff [12]: 1.24e-07 s⁻¹ | kon [12]: 20100 M⁻¹ s⁻¹ | Kd [13]: 1.69 pM | kon [13]: 138000 M⁻¹ s⁻¹ | EC50 [14]: 0.225 µg/mL | EC50 [15]: 0.045 µg/mL | EC50 [16]: 0.195 µg/mL | IC50 [17]: > 5 µg/mL | IC50 [18]: 0.411 µg/mL | IC50 [19]: 0.543 µg/mL | IC50 [20]: 0.265 µg/mL | IC50 [21]: 0.493 µg/mL | IC50 [22]: 0.866 µg/mL | IC50 [23]: 0.779 µg/mL | IC50 [24]: 0.224 µg/mL

B3: 425.6 (antibody, V domains shown)
VH: VQLKQSGPSLVQPSQSLSITCTVSGFSLTSYGIHWVRQSPGKGLEWLGVIWRGGSTDYNAAFMSRLTITKDNSKSQVFFKMNSLQADDTAIYYCATHTEGDDVDYWGQGTSVTVSS
VL: QIVLTQSPAIMSVSPGEKVTMTCSASSTMSFMYWYQQKPGSSPRLLIYDTSNLASGVPVRFSGSGSGTSYSLTISRVEAEDAATYYCQQWNTYPLTFGAGTKLELKR
Kd [1]: < 1 pM | koff [1]: < 1e-07 s⁻¹ | kon [1]: 46900 M⁻¹ s⁻¹ | Kd [2]: < 1 pM | Kd [3]: < 1 pM | Kd [4]: 3.91 pM | koff [4]: 1.54e-07 s⁻¹ | kon [4]: 41300 M⁻¹ s⁻¹ | Kd [5]: < 1 pM | Kd [6]: 3.81 pM | koff [6]: 1.51e-07 s⁻¹ | kon [6]: 40200 M⁻¹ s⁻¹ | Kd [7]: 1.76 pM | koff [7]: 1.5e-07 s⁻¹ | kon [7]: 85900 M⁻¹ s⁻¹ | Kd [8]: < 1 pM | Kd [9]: 3.69 pM | koff [9]: 1.37e-07 s⁻¹ | kon [9]: 38200 M⁻¹ s⁻¹ | Kd [10]: < 1 pM | Kd [11]: < 1 pM | Kd [12]: < 1 pM | Kd [13]: 4890 pM | koff [13]: 0.00123 s⁻¹ | kon [13]: 272000 M⁻¹ s⁻¹ | EC50 [14]: 0.034 µg/mL | EC50 [15]: 0.014 µg/mL | EC50 [16]: 0.028 µg/mL | IC50 [17]: > 5 µg/mL | IC50 [18]: 0.071 µg/mL | IC50 [19]: 0.037 µg/mL | IC50 [20]: > 3 µg/mL | IC50 [21]: > 3 µg/mL | IC50 [22]: 0.028 µg/mL | IC50 [23]: 0.028 µg/mL | IC50 [24]: 0.032 µg/mL
